From patent US20130167269A1

B1: Chymotrypsin-truncated Cry35Ab1 core protein (protein)
chain: MLDTNKVYEISNHANGLYAATYLSLDDSGVSLMNKNDDDIDDYNLKWFLFPIDDDQYIITSYAANNCKVWNVNNDKINVSTYSSTNSIQKWQIKANGSSYVIQSDNGKVLTAGTGQALGLIRLTDESSNNPNQQWNLTSVQTIQLPQKPIIDTKLKDYPKYSPTGNIDNGTSPQLMGWTLVPCIMVNDPNIDKNTQIKTTPYYILKKYQYWQRAVGSNVALRPHEKKSYTYEWGTEIDQKTTIINTLGFQINIDSGMKFDIPEVGGGTDEIKTQLNEELKIEYSHETKIMEKYQEQSEIDNPTDQSMNSIGFLTITSLELYRYNGSEIRIMQIQTSDNDTYNVTSYPNHQQALL
modifications: 125I-iodinated (Pierce Iodination Beads, Na125I) when used as the labeled ligand; positions not given; unlabeled when used as competitor
B2: Full-length Cry6Aa1 protein (protein)
chain: MIIDSKTTLPRHSLIHTIKLNSNKKYGPGDMTNGNQFIISKQEWATIGAYIQTGLGLPVNEQQLRTHVNLSQDISIPSDFSQLYDVYCSDKTSAEWWNKNLYPLIIKSANDIASYGFKVAGDPSIKKDGYFKKLQDELDNIVDNNSDDDAIAKAIKDFKARCGILIKEAKQYEEAAKNIVTSLDQFLHGDQKKLEGVINIQKRLKEVQTALNQAHGESSPAHKELLEKVKNLKTTLERTIKAEQDLEKKVEYSFLLGPLLGFVVYEILENTAVQHIKNQIDEIKKQLDSAQHDLDRDVKIIGMLNSINTDIDNLYSQGQEAIKVFQKLQGIWATIGAQIENLRTTSLQEVQDSDDADEIQIELEDASDAWLVVAQEARDFTLNAYSTNSRQNLPINVISDSCNCSTTNMTSNQYSNPTTNMTSNQYMISHEYTSLPNNFMLSRNSNLEYKCPENNFMIYWYNNSDWYNNSDWYNN
modifications: 125I-iodinated (Pierce Iodination Beads, Na125I) in the saturation assay; positions not given; unlabeled when used as competitor

How the values were obtained:
[1] = target: Brush border membrane vesicle (BBMV) preparation from midguts of third instars of the western corn rootworm (Diabrotica virgifera virgifera LeConte) (Diabrotica virgifera virgifera); experiment: Homologous competition: unlabeled Cry35Ab1 (0-5,000 nM) against 5 nM 125I-Cry35Ab1 on BBMV (0.1 mg/ml); remaining about 50% considered nonspecific
[2] = target: Brush border membrane vesicle (BBMV) preparation from midguts of third instars of the western corn rootworm (Diabrotica virgifera virgifera LeConte) (Diabrotica virgifera virgifera)

Binder	percent of bound 125I-Cry35Ab1 displaced at approximately 100 nM unlabeled Cry35Ab1 [1] [%]	Kd [2] [nM]	binding site concentration Bmax (pmole/ug BBMV) [2]
B1	> 50	11.7	5.19
B2		7.99	2.71
